Measurements as given in US12186374B2 (Sanofi-Aventis Deutschland GmbH, priority 2014, dated 2025).

Key:
[1] = system: patients with Type 2 diabetes mellitus (T2DM); test: Fasting plasma glucose change from baseline to Week 30 (Example 2); assay type: in vivo, human
Procedure: FPG is measured at a central laboratory. At V5 and V21, FPG will be part of the standardized meal test.
(§1) Similar MMRM method or ANCOVA was applied on continuous secondary efficacy endpoints and Cochran-Mantei-Haenszel method stratified by randomization strata was applied on categorical efficacy endpoints.

patients with T2DM [2] = test: Standardized meal test: 2-hour glucose excursion and 2-hour PPG (Example 3); assay type: in vivo, human
Procedure: Patients will undergo a standardized meal challenge to assess fasting and postprandial glucose (central laboratory), as well as plasma glucose excursion.
The standardized meal contains approximately 600 kcal and is composed of 50 to 55% carbohydrate, 15 to 20% protein and 25 to 30% fat.
On the day of the standardized meal test, the patients will come to the investigational site in the morning, in fasting conditions for at least 8 hours and must not eat any food or drink, except water, before the scheduled standardized meal test. […] Patient in insulin glargine group will inject their insulin glargine at their usual injection time.
The standardized meal for all patients should be consumed within a 15-minute period. Blood for plasma glucose is drawn 5 times: • 30 minutes prior to the start of the meal and before IMP administration if the IMP is injected before breakfast; • Just before the start of the standardized meal (0 minute), • 30 minutes after the start of the standardized meal, • 60 minutes after the start of the standardized meal, • 120 minutes after the start of the standardized meal.
(§2) Similar MMRM method or analysis of covariance (ANCOVA) was applied on continuous secondary efficacy endpoints and the Cochran-Mantei-Haenszel method stratified by randomization strata was applied for categorical efficacy endpoints.

[3] = system: patients with Type 2 diabetes mellitus (T2DM); test: Events adjudicated as allergic reaction by ARAC (Example 2); assay type: in vivo, human
Excerpt: The mission of the ARAC will be to adjudicate, in a timely manner, all allergic, or possible allergic events.
In case a patient experiences an allergic reaction or an allergic-like reaction this has to be reported as an adverse event and recorded in the e-CRF on the specific AE form for suspected allergic event. Additional information is collected on specific allergic reaction complementary form. Allergic reaction or possible allergic reaction will be adjudicated by the ARAC (Section 5.4.2).
The number (%) of patients with events adjudicated as allergic reactions by ARAC and with events adjudicated by ARAC as possibly related to the IMP will be summarized by treatment group. All the allergic events reported by the investigators on the AE form for suspected allergic event and its associated complementary forms (confirmed or not confirmed by ARAC) will be listed.

patients with T2DM [4] = test: Increased calcitonin reported on AE form (Example 3); assay type: in vivo, human
Excerpt: During the course of the study, if calcitonin value is found […] (5.9 pmol/L): • A retest should be performed by the central laboratory within 7 days. In addition, blood should be collected and sent to the central laboratory for measurement of: calcium, phosphorus, gastrin, Thyroid Stimulating Hormone (TSH), and anti-thyroid peroxidase (anti-TPO) antibodies. • The clinical and laboratory documentations listed below are to be collected and recorded in source documents as soon as possible: • Potential false positive circumstances: smoking status, proton-pump inhibitor treatments (eg, omeprazole), autoimmune thyroid diseases (Hashimoto's thyroiditis or Grave's disease), differentiated thyroid cancer, hypercalcemia, hypergastrinemia, chronic renal insufficiency (not on dialysis), other neuro-endocrine tumors (lung small cell cancer, intestinal carcinoid), acute pulmonary inflammatory conditions, or sepsis; • Specific personal and/or familial medical history in relation to thyroid or other endocrine diseases; • Specific physical examination (neck, thyroid gland).
If the retest confirms that the calcitonin value is […]: • The event must be reported in the e-CRF on the specific AE form and specific complementary form for “increased calcitonin […]” with all appropriate clinical and laboratory documentation. • An ultrasound scan of the thyroid should be performed and the patient may be referred to a thyroid specialist if judged necessary. • The patient should continue to be followed according to protocol schedule (including planned calcitonin measurements). […] As far as possible, blood should be collected 1 to 2 weeks after IMP discontinuation and sent to the central laboratory for calcitonin measurement. • If at any time during follow-up a calcitonin value ≥20 pg/mL increases by 20% or more between 2 assessments (while remaining below 50 pg/mL), a repeated measurement should be performed earlier than scheduled in the protocol, ie, 1 month later. Once results are available, discussion with Sponsor should be initiated without delay for further guidance. 9.6.7 Monitoring of Renal Function in Case of Prolonged and Severe Nausea and Vomiting

patients with T2DM [5] = assay type: in vivo, human; settings: Example 3
Excerpt: as §2

[6] = system: patients with Type 2 diabetes mellitus (T2DM); test: Patients with HbA1c ≤6.5% or <7% at Week 30 (Example 2); assay type: in vivo, human; settings: mITT population
Excerpt: Efficacy analysis was based on modified intent-to-treat (mITT) population using efficacy assessments collected during the study, including those obtained after IMP discontinuation or introduction of rescue therapy. The mITT population consisted of all randomized patients who had both a baseline assessment and at least one post-baseline assessment of any primary or secondary efficacy variables.
as §1

patients with T2DM [7] = test: Major cardiovascular events adjudicated by CAC (Example 3)
[8] = standardized meal test, ANCOVA, mITT population
[9] = standardized meal test, mITT population
[10] = on-treatment period, Safety population
[11] = PT, on-treatment period, Safety population

Gly(A21)-Arg(B31)-Arg(B32)-human insulin [Insulin Glargine]
FPG, LS mean change from baseline to Week 30 ([1]; Example 2): -3.27 mmol/L | Fasting plasma glucose, change from baseline to Week 30, LS Mean (SE) ([1]; MMRM, mITT population): −3.27 (0.091) mmol/L | Fasting plasma glucose, Week 30, Mean (SD) ([1]; mITT population): 6.53 (1.76) mmol/L | Fasting plasma glucose, Week 30, Median ([1]; mITT population): 6.20 mmol/L | 2-hour PPG, LS mean change (patients with T2DM [2]; Example 3): -1.39 mmol/L | 2-hour glucose excursion, LS mean change from baseline to Week 30 (patients with T2DM [2]; Example 3, standardized liquid breakfast meal): -0.47 mmol/L | 2-hour plasma glucose excursion, change from baseline to Week 30 (LOCF), LS Mean (SE) (patients with T2DM [2]; [8]): −0.47 (0.274) mmol/L | 2-hour postprandial plasma glucose change from baseline to Week 30 (LOCF), LS Mean (SE) (patients with T2DM [2]; [8]): −1.39 (0.310) mmol/L | 2-hour plasma glucose excursion at Week 30 (LOCF), Mean (SD) (patients with T2DM [2]; [9]): 6.71 (3.34) mmol/L | 2-hour plasma glucose excursion at Week 30 (LOCF), Median (patients with T2DM [2]; [9]): 6.40 mmol/L | 2-hour plasma glucose excursion, change from baseline to Week 30 (LOCF), Mean (SD) (patients with T2DM [2]; [9]): −0.44 (3.34) mmol/L | 2-hour plasma glucose excursion, change from baseline to Week 30 (LOCF), Median (patients with T2DM [2]; [9]): -0.30 mmol/L | 2-hour postprandial plasma glucose at Week 30 (LOCF), Mean (SD) (patients with T2DM [2]; [9]): 13.41 (3.83) mmol/L | 2-hour postprandial plasma glucose at Week 30 (LOCF), Median (patients with T2DM [2]; [9]): 13.10 mmol/L | 2-hour postprandial plasma glucose change from baseline to Week 30 (LOCF), Mean (SD) (patients with T2DM [2]; [9]): −1.56 (4.20) mmol/L | 2-hour postprandial plasma glucose change from baseline to Week 30 (LOCF), Median (patients with T2DM [2]; [9]): -1.50 mmol/L | Allergic reaction by ARAC: All; Anaphylactic reaction ([3]; in vivo): 0 Number (%) | Allergic reaction by ARAC: All; Angioedema ([3]; in vivo): 0 Number (%) | Allergic reaction by ARAC: All; Other allergic reaction; Conjunctivitis allergic ([3]; in vivo): 1 (0.2%) Number (%) | Allergic reaction by ARAC: All; Other allergic reaction; Rhinitis allergic ([3]; in vivo): 2 (0.4%) Number (%) | Allergic reaction by ARAC: Not related to IMP; Angioedema ([3]; in vivo): 0 Number (%) | Allergic reaction by ARAC: Not related to IMP; Any category; Any event ([3]; in vivo): 3 (0.6%) Number (%) | Allergic reaction by ARAC: Not related to IMP; Other allergic reaction; Conjunctivitis allergic ([3]; in vivo): 1 (0.2%) Number (%) | Allergic reaction by ARAC: Not related to IMP; Other allergic reaction; Rhinitis allergic ([3]; in vivo): 2 (0.4%) Number (%) | Allergic reaction by ARAC: Possibly related to IMP; Anaphylactic reaction ([3]; in vivo): 0 Number (%) | Allergic reaction by ARAC: Possibly related to IMP; Any category; Any event ([3]; in vivo): 0 Number (%) | Allergic reactions possibly related to IMP (ARAC), number of patients ([3]; in vivo): none | Patients with events adjudicated as allergic reaction by ARAC: All; Any category; Any event ([3]; in vivo): 3 (0.6%) Number (%) | Allergic reaction by ARAC: All; Urticaria (hives); Urticaria [3, 10]: 1 (0.2%) Number (%) | Allergic reaction by ARAC: Not related to IMP; Urticaria (hives); Urticaria [3, 10]: 1 (0.2%) Number (%) | Allergic reaction by ARAC: Possibly related to IMP; Urticaria (hives); Urticaria [3, 10]: 0 Number (%) | Patients with TEAE of increased calcitonin (≥20 pg/mL) (patients with T2DM [4]; Example 3): Two | % of patients with events reported on the AE form for increased calcitonin (≥20 ng/L): Blood calcitonin increased (patients with T2DM [4]; [11]): 0.5% | Number of patients with events reported on the AE form for increased calcitonin (≥20 ng/L): Blood calcitonin increased (patients with T2DM [4]; [11]): 2 | % of patients with events reported on the AE form for increased calcitonin (≥20 ng/L): Any (patients with T2DM [4]; [10]): 0.5% | Number of patients with events reported on the AE form for increased calcitonin (≥20 ng/L): Any (patients with T2DM [4]; [10]): 2 | Patients reaching HbA1c<7.0% with no body weight gain and no documented symptomatic hypoglycemia (patients with T2DM [5]): 9.0% | Patients reaching HbA1c<7.0% at Week 30 with no documented symptomatic hypoglycemia (patients with T2DM [5]; 30-week treatment period): 18.6% | % of patients with HbA1c ≤[…] at Week 30 [6]: (39.5%) | Number of patients with HbA1c ≤[…] at Week 30 [6]: 184 patients | % of patients with HbA1c ≤[…] at Week 30 ([6]; listed as insulin glargine): 39.5% | Events adjudicated as major cardiovascular events by CAC, % of patients (patients with T2DM [7]; Example 3): 1.1% | Events adjudicated as major cardiovascular events by CAC, number of patients (patients with T2DM [7]; Example 3): 4 patients | % of patients with events adjudicated as major cardiovascular events by CAC: Any (patients with T2DM [7]; [10]): 1.1% | % of patients with events adjudicated as major cardiovascular events by CAC: Cardiovascular death (patients with T2DM [7]; [10]): 0.3% | % of patients with events adjudicated as major cardiovascular events by CAC: Coronary revascularization procedure (patients with T2DM [7]; [10]): 0.8% | % of patients with events adjudicated as major cardiovascular events by CAC: Hospitalization for heart failure (patients with T2DM [7]; [10]): 0.3% | Number of patients with events adjudicated as major cardiovascular events by CAC: Any (patients with T2DM [7]; [10]): 4 | Number of patients with events adjudicated as major cardiovascular events by CAC: Cardiovascular death (patients with T2DM [7]; [10]): 1 | Number of patients with events adjudicated as major cardiovascular events by CAC: Coronary revascularization procedure (patients with T2DM [7]; [10]): 3 | Number of patients with events adjudicated as major cardiovascular events by CAC: Hospitalization for heart failure (patients with T2DM [7]; [10]): 1 | Number of patients with events adjudicated as major cardiovascular events by CAC: Hospitalization for unstable angina (patients with T2DM [7]; [10]): 0 | Number of patients with events adjudicated as major cardiovascular events by CAC: Non-fatal myocardial infarction (patients with T2DM [7]; [10]): 0 | Number of patients with events adjudicated as major cardiovascular events by CAC: Non-fatal stroke (patients with T2DM [7]; [10]): 0
